Experimental findings from patent publication US6127149 are described below.

The target of the assay is cultured cells CH3/10T1/2 clone 8 (product of Dainippon Pharmaceutical Co., Ltd.). Nature of the assay: adhesion of cells to coated dish (10 ug/cm^2), 1 hour, DNA of attached cells by spectrophotometer.

B1: invariant modified epimorphin fragment: fragment (2) of mouse epimorphin (Examples 10 to 12) (protein)
chain: NGNRTSVDLRIRRTQHSVLSRKFVDVMTEYNEAQILFRERSKGRIQRQLEITGRTTTDDELEEMLESGKPSIFISDIISDSQIT
B1 showed an absorbance (OD at 260 nm) of attached cells of 0.33 OD at 260 nm.
